# According to patent US20230322953A1 (HARBOUR BIOMED SHANGHAI, published 2023):
# How the values were obtained:
# human BCMA [1] = molecular target: T1, human BCMA (human, UniProt Q02223 1-184); test: FACS on NCI-H929 cells
# T1 construct: whole, on cells; also called hBCMA; TNFRSF17
# T1 sequence (looked up): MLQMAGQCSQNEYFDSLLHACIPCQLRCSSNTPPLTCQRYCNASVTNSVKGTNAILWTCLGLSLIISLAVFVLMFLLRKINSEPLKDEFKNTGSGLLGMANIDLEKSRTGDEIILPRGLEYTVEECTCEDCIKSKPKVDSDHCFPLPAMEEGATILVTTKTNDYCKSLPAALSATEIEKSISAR
# cynomolgus monkey BCMA = molecular target: T2, cynomolgus monkey BCMA (cynomolgus monkey, UniProt A0A2K5UD97 1-183); test: FACS on HEK293T/cyno BCMA cells
# T2 construct: whole, on cells; also called cyno BCMA
# human BCMA [2] = molecular target: T1, human BCMA; test: FACS on HEK293T/hBCMA cells, Experiment 1
# [3] = molecular target: T3, human PD-L1 (programmed death ligand 1) (human, UniProt Q9NZQ7 19-290); test: flow cytometry (FACS) on CHO-K1/hPDL1 cells, Experiment 3
# T3 construct: whole, on cells; also called hPDL1; CD274
# [4] = molecular target: T4, human 4-1BB (tumor necrosis factor receptor superfamily member 9) (human, UniProt Q07011 24-255); test: cell-based or functional assay
# [5] = molecular target: T4, human 4-1BB (tumor necrosis factor …); test: flow cytometry (FACS) on CHO-K1/hu 4-1BB cells
# [6] = molecular target: T3, human PD-L1 (programmed death ligand 1); test: flow cytometry (FACS) on CHO-K1/hPDL1 cells, Experiment 1
# cynomolgus monkey 4-1BB = molecular target: T5, cynomolgus monkey 4-1BB (cynomolgus monkey); test: flow cytometry (FACS) on CHO-K1/cyno 4-1BB cells, Experiment 1
# T5 construct: whole, on cells; also called cyno 4-1BB
# T2 sequence (A0A2K5UD97 entry or part of it): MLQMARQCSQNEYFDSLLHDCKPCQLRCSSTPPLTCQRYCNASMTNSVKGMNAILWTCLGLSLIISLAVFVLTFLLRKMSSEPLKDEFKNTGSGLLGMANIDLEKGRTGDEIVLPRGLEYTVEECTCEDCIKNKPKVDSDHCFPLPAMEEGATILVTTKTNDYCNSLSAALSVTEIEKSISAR
# T4 sequence (Q07011 24-255): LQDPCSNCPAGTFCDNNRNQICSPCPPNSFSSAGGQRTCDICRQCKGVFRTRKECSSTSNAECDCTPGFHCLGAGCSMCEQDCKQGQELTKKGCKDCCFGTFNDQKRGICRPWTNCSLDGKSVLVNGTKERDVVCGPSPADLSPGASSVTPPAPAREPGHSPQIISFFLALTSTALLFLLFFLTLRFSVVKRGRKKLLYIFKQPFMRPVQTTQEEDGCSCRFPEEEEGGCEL
# T3 sequence (Q9NZQ7 19-290): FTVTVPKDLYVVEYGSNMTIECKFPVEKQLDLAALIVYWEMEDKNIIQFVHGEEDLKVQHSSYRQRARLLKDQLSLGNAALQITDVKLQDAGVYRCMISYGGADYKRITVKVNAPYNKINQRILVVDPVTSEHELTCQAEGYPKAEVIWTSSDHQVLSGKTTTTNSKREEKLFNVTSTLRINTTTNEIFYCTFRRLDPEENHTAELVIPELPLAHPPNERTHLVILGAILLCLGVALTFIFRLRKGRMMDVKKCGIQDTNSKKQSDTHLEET
binder,measurement,setting,value
"PR002929 (bispecific antibody, human IgG1, lambda, L234A L235A) light: QAVVTQEPSLTVSPGGTVTLTCRSSTGAVTTSNYANWVQQKPGQAPRGLIGGTNKRAPWTPARFSGSLLGDKAALTLLGAQPEDEAEYFCALWYSNLWVFGGGTKLTVLGQPKAAPSVTLFPPSSEELQANKATLVCLISDFYPGAVTVAWKADSSPVKAGVETTTPSKQSNNKYAASSYLSLTPEQWKSHRSYSCQVTHEGSTVEKTVAPTECS heavy: not shown EVQLVETGGGLIQPGGSLRLSCAASGFTVSDNYMTWVRQAPGKGLEWVSVIFSGGNTYYADSVKGRFTISRDNAKNTLYLQMNSLRAEDTALYYCARRNYDDTRGTDVFDIWGQGTMVTVSSASEPKSSDKTHTCPPCPAPEAAGGPSVFLFPPKPKDTLMISRTPEVTCVVVDVSHEDPEVKFNWYVDGVEVHNAKTKPREEQYNSTYRVVSVLTVLHQDWLNGKEYKCKVSNKALPAPIEKTISKAKGQPREPQVCTLPPSREEMTKNQVSLSCAVKGFYPSDIAVEWESNGQPENNYKTTPPVLDSDGSFFLVSKLTVDKSRWQQGNVFSCSVMHEALHNHYTQKSLSLSPGK",EC50,human BCMA [1],50.2 nM
same,Maximum MFI,cynomolgus monkey BCMA,13800
same,EC50,human BCMA [2],9.02 nM
same,Maximum MFI,human BCMA [2],17600
"PR002935 (bispecific antibody, human IgG1, lambda, L234A L235A) light: QAVVTQEPSLTVSPGGTVTLTCRSSTGAVTTSNYANWVQQKPGQAPRGLIGGTNKRAPWTPARFSGSLLGDKAALTLLGAQPEDEAEYFCALWYSNLWVFGGGTKLTVLGQPKAAPSVTLFPPSSEELQANKATLVCLISDFYPGAVTVAWKADSSPVKAGVETTTPSKQSNNKYAASSYLSLTPEQWKSHRSYSCQVTHEGSTVEKTVAPTECS heavy: not shown EVQLVETGGGLIQPGGSLRLSCAASGFTVSDNYMTWVRQAPGKGLEWVSVIFSGGNTYYADSVKGRFTISRDNAKNTLYLQMNSLRAEDTALYYCARRNYDDTRGTDVFDIWGQGTMVTVSSASEPKSSDKTHTCPPCPAPEAAGGPSVFLFPPKPKDTLMISRTPEVTCVVVDVSHEDPEVKFNWYVDGVEVHNAKTKPREEQYNSTYRVVSVLTVLHQDWLNGKEYKCKVSNKALPAPIEKTISKAKGQPREPQVCTLPPSREEMTKNQVSLSCAVKGFYPSDIAVEWESNGQPENNYKTTPPVLDSDGSFFLVSKLTVDKSRWQQGNVFSCSVMHEALHNHYTQKSLSLSPGK",Maximum MFI,human BCMA [1],3840
same,Maximum MFI,cynomolgus monkey BCMA,22000
same,EC50,human BCMA [2],14.8 nM
same,Maximum MFI,human BCMA [2],23900
"PR001990 (bispecific antibody, human IgG1, lambda, L234A L235A) light: QAVVTQEPSLTVSPGGTVTLTCRSSTGAVTTSNYANWVQQKPGQAPRGLIGGTNKRAPWTPARFSGSLLGDKAALTLLGAQPEDEAEYFCALWYSNLWVFGGGTKLTVLGQPKAAPSVTLFPPSSEELQANKATLVCLISDFYPGAVTVAWKADSSPVKAGVETTTPSKQSNNKYAASSYLSLTPEQWKSHRSYSCQVTHEGSTVEKTVAPTECS heavy: EVQLLESGGGLVQPGGSLRLSCAASGFTFNTYAMNWVRQAPGKGLEWVSRIRSKYNNYATYYADSVKDRFTISRDDSKSTLYLQMNSLRAEDTAVYYCVRHGNFGNSYVSWFAYWGQGTLVTVSSASTKGPSVFPLAPSSKSTSGGTAALGCLVKDYFPEPVTVSWNSGALTSGVHTFPAVLQSSGLYSLSSVVTVPSSSLGTQTYICNVNHKPSNTKVDKKVEPKSCDKTHTCPPCPAPEAAGGPSVFLFPPKPKDTLMISRTPEVTCVVVDVSHEDPEVKFNWYVDGVEVHNAKTKPREEQYNSTYRVVSVLTVLHQDWLNGKEYKCKVSNKALGAPIEKTISKAKGQPREPQVYTLPPCREEMTKNQVSLWCLVKGFYPSDIAVEWESNGQPENNYKTTPPVLDSDGSFFLYSKLTVDKSRWQQGNVFSCSVMHEALHNHYTQKSLSLSPGK EVQLVETGGGLIQPGGSLRLSCAASGFTVSDNYMTWVRQAPGKGLEWVSVIFSGGNTYYADSVKGRFTISRDNAKNTLYLQMNSLRAEDTALYYCARRNYDDTRGTDVFDIWGQGTMVTVSSASEPKSSDKTHTCPPCPAPEAAGGPSVFLFPPKPKDTLMISRTPEVTCVVVDVSHEDPEVKFNWYVDGVEVHNAKTKPREEQYNSTYRVVSVLTVLHQDWLNGKEYKCKVSNKALGAPIEKTISKAKGQPREPQVCTLPPSREEMTKNQVSLSCAVKGFYPSDIAVEWESNGQPENNYKTTPPVLDSDGSFFLVSKLTVDKSRWQQGNVFSCSVMHEALHNHYTQKSLSLSPGK",Maximum MFI,human BCMA [1],1840
same,Maximum MFI,cynomolgus monkey BCMA,9170
same,Maximum MFI,human BCMA [2],13400
"PR007164, PD-L1×4-1BB bispecific antibody molecule of Fab-HCAb symmetric structure (bispecific antibody, human IgG1, Structure 1 Fab(CL)-VH-Fc; Fab of PR000265, VH of PR001760; no first linker, human IgG1 hinge (C220S); human IgG1 (L234A, L235A)) chain 1: EVQLVESGGGLVQPGGSLRLSCAASGFTFSSYWMSWVRQAPGKGLEWVANIKQEGSEKYYVDSVKGRFTISRDNAKNSLYLQMNSLRAEDTAVYYCARDRAVAGAFDIWGQGTMVTVSSASTKGPSVFPLAPSSKSTSGGTAALGCLVKDYFPEPVTVSWNSGALTSGVHTFPAVLQSSGLYSLSSVVTVPSSSLGTQTYICNVNHKPSNTKVDKKVEPKSC chain 2: not shown",EC50,[3],1.93 nM
same,Maximum MFI,[3],51400 MFI
"PR003549, PD-L1×4-1BB bispecific antibody molecule of IgG-VH tetravalent symmetric structure (bispecific antibody, Structure 5; IgG PR000265, VH of PR001758 at C-terminus of heavy chain; linker H1_15-RT; human IgG1 (L234A, L235A, P329G)) light: DIQMTQSPSTLSASVGDRVTVTCRASQSIYIWLAWYQQKPGKAPNLLIYKASSLETGVPSRFSGSGSGTEFTLTISSLQPDDFATYYCQQYYGSSRTFGQGTKVEIKRTVAAPSVFIFPPSDEQLKSGTASVVCLLNNFYPREAKVQWKVDNALQSGNSQESVTEQDSKDSTYSLSSTLTLSKADYEKHKVYACEVTHQGLSSPVTKSFNRGEC heavy: EVQLVESGGGLVQPGGSLRLSCAASGFTFSSYWMSWVRQAPGKGLEWVANIKQEGSEKYYVDSVKGRFTISRDNAKNSLYLQMNSLRAEDTAVYYCARDRAVAGAFDIWGQGTMVTVSSASTKGPSVFPLAPSSKSTSGGTAALGCLVKDYFPEPVTVSWNSGALTSGVHTFPAVLQSSGLYSLSSVVTVPSSSLGTQTYICNVNHKPSNTKVDKKVEPKSCDKTHTCPPCPAPEAAGGPSVFLFPPKPKDTLMISRTPEVTCVVVDVSHEDPEVKFNWYVDGVEVHNAKTKPREEQYNSTYRVVSVLTVLHQDWLNGKEYKCKVSNKALGAPIEKTISKAKGQPREPQVYTLPPSREEMTKNQVSLTCLVKGFYPSDIAVEWESNGQPENNYKTTPPVLDSDGSFFLYSKLTVDKSRWQQGNVFSCSVMHEALHNHYTQKSLSLSPGEPKSSDKTHTPPPPPRTEVQLLESGGGLVQLGGSLRLSCAASGFTFSRYAMTWVRQAPEKGLEWVSSISGSGDDTYYGDSVKGRFTISRDNSQNTVYLQMNSLRAEDTAVYFCAKEKAGTTGDYYYNVDVWGQGTTVTVSS","IFN-γ EC50 (nM), T cells with MDA-MB-231 target cells",[4],0.0695 nM
same,"IL-2 EC50 (nM), T cells with MDA-MB-231 target cells",[4],0.12 nM
same,EC50,[5],1.9 nM
same,Maximum MFI,[5],1550 MFI
same,EC50,[6],1.56 nM
same,Maximum MFI,[6],2220 MFI
same,EC50,cynomolgus monkey 4-1BB,1.86 nM
same,Maximum MFI,cynomolgus monkey 4-1BB,4980 MFI
"PR007163, PD-L1×4-1BB bispecific antibody molecule of Fab-HCAb symmetric structure (bispecific antibody, human IgG1, Structure 2 Fab(CH1)-VH-Fc; Fab of PR000265, VH of PR001760; no first linker, human IgG1 hinge (C220S); human IgG1 (L234A, L235A)) light: DIQMTQSPSTLSASVGDRVTVTCRASQSIYIWLAWYQQKPGKAPNLLIYKASSLETGVPSRFSGSGSGTEFTLTISSLQPDDFATYYCQQYYGSSRTFGQGTKVEIKRTVAAPSVFIFPPSDEQLKSGTASVVCLLNNFYPREAKVQWKVDNALQSGNSQESVTEQDSKDSTYSLSSTLTLSKADYEKHKVYACEVTHQGLSSPVTKSFNRGEC not shown",EC50,[3],2.26 nM
same,Maximum MFI,[3],51300 MFI
"PR003550, PD-L1×4-1BB bispecific antibody molecule of IgG-VH tetravalent symmetric structure (bispecific antibody, Structure 5; IgG PR000265, VH of PR001760 at C-terminus of heavy chain; linker H1_15-RT; human IgG1 (L234A, L235A, P329G)) light: DIQMTQSPSTLSASVGDRVTVTCRASQSIYIWLAWYQQKPGKAPNLLIYKASSLETGVPSRFSGSGSGTEFTLTISSLQPDDFATYYCQQYYGSSRTFGQGTKVEIKRTVAAPSVFIFPPSDEQLKSGTASVVCLLNNFYPREAKVQWKVDNALQSGNSQESVTEQDSKDSTYSLSSTLTLSKADYEKHKVYACEVTHQGLSSPVTKSFNRGEC heavy: EVQLVESGGGLVQPGGSLRLSCAASGFTFSSYWMSWVRQAPGKGLEWVANIKQEGSEKYYVDSVKGRFTISRDNAKNSLYLQMNSLRAEDTAVYYCARDRAVAGAFDIWGQGTMVTVSSASTKGPSVFPLAPSSKSTSGGTAALGCLVKDYFPEPVTVSWNSGALTSGVHTFPAVLQSSGLYSLSSVVTVPSSSLGTQTYICNVNHKPSNTKVDKKVEPKSCDKTHTCPPCPAPEAAGGPSVFLFPPKPKDTLMISRTPEVTCVVVDVSHEDPEVKFNWYVDGVEVHNAKTKPREEQYNSTYRVVSVLTVLHQDWLNGKEYKCKVSNKALGAPIEKTISKAKGQPREPQVYTLPPSREEMTKNQVSLTCLVKGFYPSDIAVEWESNGQPENNYKTTPPVLDSDGSFFLYSKLTVDKSRWQQGNVFSCSVMHEALHNHYTQKSLSLSPGEPKSSDKTHTPPPPPRTEVQLVESGGGVVQPGGSLRLSCAASGFTFSNYAMTWVRQAPEKGLEWVSSISGSGVSTYYADSVKGRFTISRDNSKNTLYLQMTRLTAEDTAVYFCAKEGSSETDDHYYNVDVWGQGTTVTVSS",EC50,[6],1.11 nM
same,Maximum MFI,[6],2250 MFI
same,EC50,cynomolgus monkey 4-1BB,1.32 nM
same,Maximum MFI,cynomolgus monkey 4-1BB,5360 MFI
"Anti-4-1BB monoclonal antibody urelumab analog, hIgG4 (S228P) (antibody, V domains shown) VH: QVQLQQWGAGLLKPSETLSLTCAVYGGSFSGYYWSWIRQSPEKGLEWIGEINHGGYVTYNPSLESRVTISVDTSKNQFSLKLSSVTAADTAVYYCARDYGPGNYDWYFDLWGRGTLVTVSS VL: EIVLTQSPATLSLSPGERATLSCRASQSVSSYLAWYQQKPGQAPRLLIYDASNRATGIPARFSGSGSGTDFTLTISSLEPEDFAVYYCQQRSNWPPALTFGGGTKVEIKR","IFN-γ EC50 (nM), T cells with MDA-MB-231 target cells",[4],0.536 nM
same,"IL-2 EC50 (nM), T cells with MDA-MB-231 target cells",[4],2.94 nM
